Like-named read-outs stand apart in the source and are kept apart here.
Key:
[1] = test system: conserved p53-binding promoter of miR-192; assay: luciferase reporter assay of p53-binding promoter of miR-192; format: cell-based, human; details: HCT (wt-p53) cells, 5 μmol/L for 24 hours
Description: Luciferase reporter assay was used to determine the transcriptional activation of conserved p53-binding promoter of miR-192. pGL3-Basic promoterless luciferase reporter plasmid (Promega) was used in this study. Double-stranded DNA oligonucleotides of conserved p53-binding sequence of miR-192 was synthesized and annealed and cloned upstream of firefly luciferase in the pGL3-Basic plasmid (miR-192-pGL3). […] Control vector and miR-192-pGL3 vector were transfected into both HCT-116 (wt-p53) and HCT-116 (null-p53) cells. To further induce p53 expression, transfected HCT-116 (wt-p53) and HCT-116 (null-p53) cells were also treated with 5 μmol/L 5-fluorouracil for 24 hours. The promoter activity of each construct was quantified by dual luciferase assay (Promega) 24 hours after transfection.

[2] = test system: miR-192; assay: real time qRT-PCR of endogenous mature miR-192 after MTX treatment; format: cell-based, human
Procedure: Thereafter, the expression of endogenous mature miR-192 was analyzed by real time qRT-PCT analysis using an internal control RNU6B as an internal standard for normalization. The cDNA synthesis was carried out with the High Capacity cDNA synthesis kit (Applied Biosystems) using 10 ng of total RNA as template. The miRNA sequence-specific RT-PCR primers for miR-192 and endogenous control RNU6B were purchased from Ambion. Real-time quantitative reverse transcription-PCR (qRT-PCR) analysis was carried out using Applied Biosystems 7500 Real-Time PCR System. The PCR master mix containing TaqMan 2× Universal PCR Master Mix (No Amperase UNG), 10× TaqMan assay and RT products in 20 μl volume were processed as follows: 95° C. for 10 minutes, and then 95° C. for 15 seconds, 60° C. for 60 seconds for up to 40 cycles (n=3). Signal was collected at the endpoint of every cycle. The gene expression ΔCT values of miRNAs from each sample were calculated by normalizing with internal control RNU6B and relative quantitation values were plotted.

[3] = test system: U-2 OS cells; assay: WST-1 chemosensitivity to MTX after transfection; format: cell-based; details: for IC50: Homo sapiens, U2OS, 72 h
[4] = test system: HCT-116(wt-p53) cells; assay: WST-1 chemosensitivity to TDX after transfection; format: cell-based; details: Homo sapiens, HCT-116, 72 h
Procedure: HCT-116 (wt-p53) cells were plated in 96-well plates at 1×10^3 cells/well in triplicate and were transfected with miR-215 precursor, non-specific control miRNA, or siRNA against TS or DHFR in 100 μl of medium. […] To measure viable cells, 10 μl of WST-1 (Roche Applied Science) was added to each well. After 2 hours incubation, absorbance was measured at 450 and 630 nm respectively (n=3). Non-specific control miRNA alone was used as a negative control, and siRNAs incubation with TDX or MTX were used as the positive controls.

[5] = test system: HCT-116 (wt-p53) cells; assay: WST-1 cell proliferation after miR-215 transfection; format: cell-based, human; details: day 5, vs non-specific miRNA control
Procedure: (§1) miR-215 inhibits cell proliferation of HCT-116(wt-p53) and U-2 OS cells.
(§2) Cell proliferation assays were performed on the transduced cells. HCT-116 (wt-p53), HCT-116 (null-p53), U-2 OS, and MG63 cells were plated in 96-well plates in triplicate at 1 10^3 cells/well after transfection with miR-215 precursor or non-specific control miRNA. Cells were cultured for 24, 48, 72, 96 h. The absorbance at 450 and 630 nm was measured after incubation with 10 μl of WST-1 for 2 h.

[6] = test system: U-2 OS cells; assay: as above; format: cell-based; details: day 5, vs non-specific miRNA control
Procedure: as §1, §2

[7] = test system: U-2 OS cells; assay: cell cycle analysis by flow cytometry; format: cell-based
Procedure: miR-215 induces G2-arrest in HCT-116 (wt-p53) and U-2 OS cells. To investigate the mechanism by which miR-215 suppressed cell proliferation in HCT-116 (wt-p53) and U-2 OS cells, the impact of miR-215 on cell cycle control was analyzed by flow cytometry at 36 h after transfection. HCT-116 (wt-p53), HCT-116 (null-p53), U-2 OS and MG63 cells were transfected with miR-215 precursor and the non-specific control miRNA described as above. At 36 h after transfection, cells were harvested and resuspended at 0.5-1 10^5 cells/ml in modified Krishan buffer containing 0.1% sodium citrate and 0.3% NP-40 and kept at 4° C. Before analysis by flow cytometry, cells were treated with 0.02 mg/ml RNase H and stained with 0.05 mg/ml propidium iodide (Sigma).

[8] = test system: p53; assay: western immunoblot of p53 in HCT-116 (wt-p53) and U-2 OS cells; format: cell-based; details: both HCT-116 (wt-p53) and U-2 OS cells, 48 h after transfection
Description: (§3) miR-215 increases the expression of cell cycle control genes p53 and p21. p53 and p21, a downstream target of the p53 pathway of growth control, are reported to block cells at G2 checkpoint mainly through inhibiting activity of Cdc2, the cyclin-dependent kinase that normally drives cells into mitosis, which is the ultimate target of pathways that mediate rapid arrest in G2 in response to DNA damage. To further analyze the mechanism of cell proliferation inhibition by miR-215, we transfected miR-215 precursor into HCT-116 (wt-p53) and U-2 OS cells, and evaluated the levels of cell cycle control genes p53 and p21 by western immunoblot analysis.

[9] = test system: p21; assay: western immunoblot of p21 in HCT-116 (wt-p53) and U-2 OS cells; format: cell-based; details: both HCT-116 (wt-p53) and U-2 OS cells, 48 h after transfection
Description: as §3

[10] = test system: TS; assay: western immunoblot of TS protein after transfection; format: cell-based; details: 48 hours after transfection
Procedure: At 48 h after transfection with miR-215, miR-192 precursors or non-specific control miRNA, the cells were scraped and lysed in RIPA buffer (Sigma). Equal amounts of proteins were resolved by SDS-PAGE on 12% gels by the method of Laemmli, and transferred to polyvinylidene fluoride membranes (BIO-RAD Laboratories). The membranes were then blocked by 5% nonfat milk in TBS-T (Tris-buffered saline and 0.5% Tween-20) at room temperature for 1 h. The primary antibodies used for the analysis included mouse anti-TS mAb (1:400, Millipore), mouse anti-DHFR mAb (1:250, BD Bioscience), mouse anti-p53 mAb (1:1000, DO-1), mouse anti-p21 mAb (1:1000, F-5), and mouse anti-α-tubulin mAb (1:1000, TU-02) purchased from Santa Cruz Biotechnology. Horseradish peroxidase—conjugated antibodies against mouse (1:1000, Santa Cruz Biotechnology) were used as the secondary antibodies. Protein bands were visualized with a chemiluminescence detection system using the Super Signal substrate (BIO-RAD).
At 48 hours after transfection, proteins were extracted from miR-215-transfected cells and from control cells and changes in TS or DHFR protein levels were determined by western immunoblot analysis (FIG. 14).

[11] = test system: TS mRNA; assay: real time qRT-PCR of TS mRNA; format: cell-based; details: U-2 OS cells
Procedure: (§6) Expression levels of TS or DHFR mRNA were analyzed using real time qRT-PCR analysis (FIG. 15).

[12] = test system: DHFR mRNA; assay: real time qRT-PCR of DHFR mRNA; format: cell-based; details: U-2 OS cells
Procedure: as §6

[13] = test system: 3′UTR of DHFR; assay: pMIR-REPORT dual-luciferase reporter assay; format: cell-based, human; details: HCT-116 (wt-p53), 30 hours after transfection, compared to the vector alone
Description: (§4) To confirm whether miR-215 directly targets TS or DHFR, plasmids were constructed containing the fragments of the 3′UTR of TS or DHFR in the downstream region of firefly luciferase. The pMIR-REPORT Luciferase miRNA Expression Reporter Vector (Ambion) was used to determine the targets of miR-215. Double stranded DNA oligonucleotides containing the miR-215 binding sequence (wt-miR-215) or mismatch sequence (mut-miR-215) in 3′UTR of TS or DHFR mRNA and the HindIII and SpeI restriction site overhangs were synthesized (IDT, Coralville, Iowa) and annealed and cloned downstream of firefly luciferase in the pMIR-REPORT plasmid. The sequences of these synthesized oligonucleotides are provided below. The 3′UTR of TS includes two miR-215 binding sites: one is located at 84-104 bp, one is located at 216-236 bp.
(§5) The constructs were transiently transfected into HCT-116 (wt-p53) cells alone (control) or together with miR-215 precursor. […] Thirty hours after transfection, cells were lysated and luciferase activity was measured by the dual-luciferase reporter assay system (Promega, Madison, Wis.) according to the instructions. […]

[14] = test system: 3′UTR of TS; assay: pMIR-REPORT dual-luciferase reporter assay; format: cell-based, human; details: HCT-116 (wt-p53), 30 hours after transfection, compared to the vector alone
Description: as §4, §5

O=c1[nH]cc(F)c(=O)[nH]1 [5-fluorouracil]
activation of luciferase expression from miR-192 promoter p53 binding site [1]: further enhanced

CN(Cc1cnc2nc(N)nc(N)c2n1)c1ccc(C(=O)N[C@@H](CCC(=O)O)C(=O)O)cc1 [MTX, methotrexate]
expression of endogenous mature miR-192 ([2]; HCT-116 (null-p53)): did not cause any change
expression of endogenous mature miR-192 ([2]; HT-29 (mut-p53)): did not cause any change
expression of endogenous mature miR-192 ([2]; cells with p53 induction (wt-p53), RNU6B normalized): significant increase
IC50 ([3]; read-out: IC50 of MTX, negative control (non-specific control miRNA), 72 hours): 49.7 nM
IC50 ([3]; read-out: IC50 of MTX, positive control (siRNA against DHFR), 72 hours): 37.3 nM
cells still alive ([3]; miR-215 transduced U-2 OS cells at 200 nM of MTX): 83.6%

Cc1nc2ccc(CN(C)c3ccc(C(=O)N[C@@H](CCC(=O)O)C(=O)O)s3)cc2c(=O)[nH]1 [TDX, Ralitrexed]
IC50 ([4]; HCT-116(wt-p53) cells transfected with miR-215, 72 hours): 98.7 nM
IC50 ([4]; negative control (non-specific control miRNA), 72 hours): 18.6 nM
IC50 ([4]; positive control (siRNA against TS), 72 hours): 8.5 nM

B1: miR-215: microRNA miR-215 (SEQ ID NO:9), transfected as precursor, 72 bps hairpin stem loop processed by DICER (nucleic acid)
chain: AUCAUUCAGAAAUGGUAUACAGGAAAAUGACCUAUGAAUUGACAGACAAUAUAGCUGAGUUUGUCUGUCAUUUCUUUAGGCCAAUAUUCUGUAUGACUGUGCUACUUCAA
modifications: delivered as precursor hairpin, further chemistry not given here
reduction in cell proliferation (OD) [5]: approximately 40%
reduction in cell proliferation (OD) [6]: ~58%
G2/S ratio ([7]; 36 h after transfection (control 0.35)): 0.72
proportion of cells in the G2-phase ([7]; 36 h after transfection (control 18.50%)): 29.69%
proportion of cells in the S-phase ([7]; 36 h after transfection (control 52.08%)): 41.24%
increase of G2/S ratio ([7]; vs control): > 2 fold
p53 protein level [8]: significant increase
p21 protein level [9]: significant increase
TS protein levels [10]: clearly decreases
TS mRNA expression [11]: no reduction
DHFR mRNA expression [12]: no reduction
luciferase activity, DHFR 3′UTR construct [13]: significant decrease
luciferase activity, TS 3′UTR construct [14]: significant decrease

— patent US8927207B2, “miRNAs as therapeutic targets in cancer” (Research Foundation of State University of New York, priority 2008, dated 2015)
